Experimental data: the supplement of paper PMC9732359
± gives the uncertainty stated by the source.

Test: protein stability index of a GFP-peptide fusion (yeast GPS) (PSI 1-4); higher = more stable; sorted into four equal gates, so the index is relative within each strain
In short: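 Mid-log yeast cultures in leucine-free medium, carrying a pooled plasmid library, were sorted into four equal gates by their GFP/Cherry fluorescence ratio. Each plasmid expressed Cherry along with GFP fused upstream of a tiled 17-residue yeast protein peptide. Plasmids recovered from each gate were PCR-amplified and Illumina-sequenced, with reads assigned to strains by barcodes. The protein stability index was obtained by summing each gate's read frequency weighted by its gate number.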

| Sequence | protein stability index (doa10∆) | protein stability index (pdr5∆) | protein stability index (san1∆) | protein stability index (ubr1∆) |
| --- | --- | --- | --- | --- |
| TEYCVGDYVAYQLNGVA [YMR129W/POM152] | 2.83 ± 0.14 | 3.1 ± 0.13 | 2.1 ± 0.23 | 2.52 ± 0.066 |
| LEASLNSITKDNIDYAP [YJL039C/NUP192] | 2.7 ± 0.05 | 2.43 ± 0.041 | 2.47 ± 0.039 | 2.27 ± 0.026 |
| ANKEKKRAEKAARKAEK [RPL24B] | 3.34 ± 0.095 | 3.36 ± 0.082 | 3.58 ± 0.066 | 3.52 ± 0.078 |
| IIMQADLALKMGVPIYG [FAS2] | 1.63 ± 0.12 | 2.04 ± 0.068 | 1.79 ± 0.069 | 2.11 ± 0.044 |
| GIFGMDFYVVMNRPGAR [RPL11A] | 1.8 ± 0.057 | 1.71 ± 0.064 | 2.49 ± 0.058 | 2.24 ± 0.047 |
| VLGIKVKIMRDPAKSRT [RPS3] | 2.67 ± 0.067 | 2.78 ± 0.054 | 2.98 ± 0.049 | 3.16 ± 0.037 |
| AFNFSFNTSRNVEPTEN [YAR002W/NUP60] | 3.3 ± 0.052 | 3.3 ± 0.079 | 3.41 ± 0.064 | 3.04 ± 0.051 |
| FGAPNNPNSTAITADLG [YGL172W/NUP49] | 3.04 ± 0.094 | 3 ± 0.078 | 3.03 ± 0.058 | 2.84 ± 0.087 |
| MINGVYYNEISRDLDIS [POP6] | 2.09 ± 0.26 | 1.21 ± 0.14 |  | 1.76 ± 0.12 |
| EFVSYYYAHSIPSSKID [SNU114] | 2.01 ± 0.045 | 1.9 ± 0.052 | 2.07 ± 0.063 | 1.62 ± 0.039 |
| FALPAGSPKSATSKTSE [CDC53] | 2.9 ± 0.17 | 2.92 ± 0.13 |  |  |
| GSHLFSIHAHGSTDVGY [PUP1] | 2.58 ± 0.078 | 3.01 ± 0.15 | 2.92 ± 0.077 | 2.02 ± 0.081 |
| RAASIRARVKAFPKDDR [RPL3] | 1.22 ± 0.035 | 1.46 ± 0.051 | 1.27 ± 0.078 | 1.5 ± 0.039 |
| HELGINIDSLKFNELVK [BRR2] | 2.89 ± 0.07 | 2.93 ± 0.058 | 3.08 ± 0.054 | 2.9 ± 0.06 |
| KTDQEEEREGTDQSTEE [CSL4] | 3.12 ± 0.16 |  |  |  |
| RATTYEKLTMVFQDNVY [SIN4] | 2.2 ± 0.065 | 2.48 ± 0.051 | 2.21 ± 0.11 | 2.53 ± 0.057 |
| DPPIIIFINYKQTADWL [PRP28] | 1.43 ± 0.031 | 1.61 ± 0.048 | 1.9 ± 0.072 | 1.95 ± 0.042 |
| PKHSYLSGNPLTSVTND [SIR4] | 2.67 ± 0.073 | 3.03 ± 0.071 | 3.17 ± 0.056 | 2.97 ± 0.074 |
| TIRYPDPNIKVNDTVKI [RPS4A] | 2.48 ± 0.09 | 2.87 ± 0.097 | 2.75 ± 0.1 | 2.71 ± 0.066 |
| FRRDFLLREYDILSQIL [YJL039C/NUP192] | 1.81 ± 0.12 | 2.32 ± 0.1 | 2.08 ± 0.11 | 2.27 ± 0.06 |
| VSVEGVNVEKFNVEYFA [RPL6A] | 2.91 ± 0.069 | 3.21 ± 0.067 | 3.14 ± 0.042 | 3.16 ± 0.054 |
| SLPEELKKRYDLSYNFN [YMR129W/POM152] | 2.84 ± 0.1 | 2.67 ± 0.094 | 2.9 ± 0.08 | 2.94 ± 0.091 |
| NNKFANKIIPNVGLCIT [RPC25] | 2.71 ± 0.07 | 3.04 ± 0.082 | 2.94 ± 0.054 | 3 ± 0.081 |
| NEPTQKDEEETEYFENK [DSN1] | 3.58 ± 0.27 | 3.54 ± 0.23 | 2.71 ± 0.29 | 3.12 ± 0.23 |
| GDAAPAEEAAAEEEEES [RPP0] |  | 3.67 ± 0.16 | 3.29 ± 0.13 | 3.44 ± 0.12 |
| FLTGQFASNKKINDESS [YML103C/NUP188] | 2.23 ± 0.05 | 2.23 ± 0.055 | 2.44 ± 0.067 | 2.4 ± 0.052 |

| Sequence | protein stability index (doa10∆) | protein stability index (pdr5∆) | protein stability index (san1∆) | protein stability index (ubr1∆) |
| --- | --- | --- | --- | --- |
| QVEKLGKKMEARGQSIW [RPN9] | 1.34 ± 0.15 | 1.14 ± 0.081 |  | 1.18 ± 0.22 |
| QSALSQIIRLFYSKNRL [ISW2] | 2.62 ± 0.066 | 2.49 ± 0.059 | 1.87 ± 0.095 | 2.61 ± 0.053 |
| VSMVKRAIDSLIQKGYL [CDC53] | 1.74 ± 0.053 | 1.82 ± 0.058 | 2.03 ± 0.11 | 1.74 ± 0.052 |
| GKELDSLDLNNLELGGL [PGD1] | 3.08 ± 0.12 | 3.25 ± 0.12 | 2.99 ± 0.085 | 3.24 ± 0.066 |
| IDKITDGLGNVVDFTSL [YMR129W/POM152] | 3.41 ± 0.11 | 3.53 ± 0.13 | 3.37 ± 0.061 | 3.45 ± 0.1 |
| ESFTEELSNELSRLSTA [MED1] | 3.25 ± 0.066 | 3.12 ± 0.066 | 3.05 ± 0.053 | 3.21 ± 0.034 |
| ESSFIEIDDTEAEVTAE [BRR2] | 3.01 ± 0.068 | 3.1 ± 0.088 | 2.98 ± 0.11 | 3.06 ± 0.052 |
| FLQDKVQIKDVNDRYQI [CSI1] | 3.28 ± 0.18 | 1.58 ± 0.12 | 1.05 ± 0.17 | 3.37 ± 0.21 |
| FEQCCKEKKELQMRLKE [YIL149C/MLP2] |  | 3.11 ± 0.29 |  |  |
| GMLAMASLHSKELTRIP [MED4] | 2.18 ± 0.14 | 2.37 ± 0.12 | 2.27 ± 0.2 | 1.88 ± 0.19 |
| MSKIQVAHSSRLANLID [SMB1] | 1.47 ± 0.096 | 1.81 ± 0.15 | 1.09 ± 0.14 | 1.2 ± 0.15 |
| SSTGNANTSNNLFGATA [YJL041W/NSP1] | 3.44 ± 0.084 | 3.31 ± 0.049 | 3.3 ± 0.051 | 3.29 ± 0.056 |
| IFVSILSDRANKNQDAF [ARP9] | 2.85 ± 0.057 | 2.39 ± 0.058 | 2.53 ± 0.066 | 2.87 ± 0.056 |
| SDAMSIDEEDKDSESFS [YCG1] | 2.85 ± 0.15 | 1.95 ± 0.1 | 2.61 ± 0.13 | 2.4 ± 0.069 |
| DLRLIKVPQQAAGKRIS [SMC1] | 1.36 ± 0.099 | 1.31 ± 0.2 | 1.1 ± 0.13 | 1.15 ± 0.07 |
| ERLVEFSNVNELQEKNV [YIL149C/MLP2] | 3.31 ± 0.23 | 3.36 ± 0.24 |  | 3.1 ± 0.2 |
| ERFTKSKTLSLIQSYSL [FAS1] | 2.29 ± 0.063 | 2.06 ± 0.043 | 1.93 ± 0.11 | 2.06 ± 0.039 |
| ERKRKSVRGAIVGPDLA [RPS6A] | 3.38 ± 0.091 | 3.34 ± 0.075 | 3.33 ± 0.055 | 3.01 ± 0.13 |
| TLKLQDTRITPSKVSKI [PRE6] | 2.53 ± 0.05 | 2.85 ± 0.052 | 2.34 ± 0.1 | 2.01 ± 0.031 |
| GGNSTQNTSNMNAGGLF [YGR119C/NUP57] | 3.26 ± 0.093 | 3.15 ± 0.06 | 3.04 ± 0.055 | 3.19 ± 0.081 |
| GPPYTTDEHLIFNSGKM [ISW2] | 3.13 ± 0.059 | 3.26 ± 0.058 | 3.06 ± 0.049 | 2.99 ± 0.048 |
| NIVKLCFVHRYKDVSDL [IRR1] | 2.68 ± 0.084 | 2.71 ± 0.059 | 2.87 ± 0.055 | 2.89 ± 0.058 |
| SAKTRSHNWAAKAKRRH [RPL37B] | 3.42 ± 0.093 | 3.32 ± 0.071 | 3.31 ± 0.059 | 3.41 ± 0.042 |
| EYIIAAIRKAPHNSKSL [RPN3] | 2.79 ± 0.067 | 2.76 ± 0.061 | 2.64 ± 0.045 | 2.68 ± 0.06 |
| NIFKAEMDSVSKSMKFS [CSN9] | 2.58 ± 0.065 | 2.58 ± 0.066 | 2.71 ± 0.051 | 2.85 ± 0.044 |
| HVLNKVTLASILTTAVG [RPN1] | 1.72 ± 0.14 | 1.41 ± 0.079 | 1.46 ± 0.21 | 1.31 ± 0.19 |
